Key:
[1] = molecular target: full-length human Nectin-4 on cells (human) (UniProt Q96NY8); test: cell-based or functional assay
[2] = molecular target: full-length human Nectin-4 on cells (human) (UniProt Q96NY8); test: flow cytometry, CHO-Nectin-4 cells
[3] = molecular target: human recombinant Nectin-4 protein (extracellular domain) (human) (UniProt Q96NY8); test: ELISA, recombinant human Nectin-4 coated on plate
[4] = molecular target: full-length human Nectin-4 on cells (human) (UniProt Q96NY8); test: flow cytometry, SKBR3 cells (endogenous Nectin-4)
[5] = molecular target: full-length human Nectin-4 on cells (human) (UniProt Q96NY8); test: flow cytometry competition on CHO-Nectin-4 cells; competitor biotinylated human Nectin-1-His

B1: Positive Control 1 (PC1), in-house Nectin-4-specific antibody based on Enfortumab (AGS-22 M6) (antibody, INN chains, looked up, V domains shown)
VH: EVQLVESGGGLVQPGGSLRLSCAASGFTFSSYNMNWVRQAPGKGLEWVSYISSSSSTIYYADSVKGRFTISRDNAKNSLSLQMNSLRDEDTAVYYCARAYYYGMDVWGQGTTVTVSS
VL: DIQMTQSPSSVSASVGDRVTITCRASQGISGWLAWYQQKPGKAPKFLIYAASTLQSGVPSRFSGSGSGTDFTLTISSLQPEDFATYYCQQANSFPPTFGGGTKVEIKR
[1]
  Endocytosis EC50 (cell killing with MMAF-conjugated Fab anti-hFc), Nectin-4-CHO cells: 0.33 nM
  Endocytosis EC50 (cell killing with MMAF-conjugated Fab anti-hFc), SKBR3 cells: 0.39 nM
[2]
  EC50: 0.04 nM
[3]
  EC50: 0.34 nM
[4]
  EC50: 0.07 nM
[5]
  EC50: 0.16 nM

Reference: patent US12723100
